Experiment [1] has as its target T1, C terminus of Hsc70-interacting protein (CHIP) (human), Q9UNE7.
T1 chain: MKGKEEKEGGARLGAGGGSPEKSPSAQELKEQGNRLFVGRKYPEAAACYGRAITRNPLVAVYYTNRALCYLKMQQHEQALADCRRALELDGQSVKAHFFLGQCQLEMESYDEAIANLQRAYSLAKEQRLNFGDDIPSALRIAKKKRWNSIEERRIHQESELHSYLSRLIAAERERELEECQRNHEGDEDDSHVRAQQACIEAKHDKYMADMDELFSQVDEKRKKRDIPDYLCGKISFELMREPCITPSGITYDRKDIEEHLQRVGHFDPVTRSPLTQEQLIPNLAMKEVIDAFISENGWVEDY
The experiment can be described thus: cryo-EM structure; ternary complexes after GraFix, vitrified; Titan Krios 300 kV (Hsp70:p53-TMGST:CHIP, 15 Å) or Talos Arctica 200 kV (Hsp90:p53-TMGST:CHIP, 13 Å); atomic structures docked. The following applies: remark: other sources report otherwise.

For experiment [2], the target named is T1, C terminus of Hsc70-interacting protein …. The experiment can be described thus: negative-stain electron microscopy, 3D reconstruction; complexes stabilised and isolated by GraFix (10-30% glycerol gradient, 0.15% glutaraldehyde), stained with 2% uranyl acetate, JEOL JEM1010 at 80 kV; atomic structures docked into 19-26 Å volumes. The following applies: remark: other sources report otherwise.

B1: C terminus of Hsc70-interacting protein (CHIP), Q9UNE7 1-303 (enzyme)
chain: MKGKEEKEGGARLGAGGGSPEKSPSAQELKEQGNRLFVGRKYPEAAACYGRAITRNPLVAVYYTNRALCYLKMQQHEQALADCRRALELDGQSVKAHFFLGQCQLEMESYDEAIANLQRAYSLAKEQRLNFGDDIPSALRIAKKKRWNSIEERRIHQESELHSYLSRLIAAERERELEECQRNHEGDEDDSHVRAQQACIEAKHDKYMADMDELFSQVDEKRKKRDIPDYLCGKISFELMREPCITPSGITYDRKDIEEHLQRVGHFDPVTRSPLTQEQLIPNLAMKEVIDAFISENGWVEDY
For orientation: stoichiometry N means the number of molecules, sites or subunits per partner or assembly. As for B1, the stoichiometry N in experiment [1] and in experiment [2] was 2 each time.
